Source: PMC3500403

Experiments:
[1] = target: taxol stabilized microtubules (UniProt Q6B856); assay: co-sedimentation
[2] = target: human Ska1 complex containing GFP-Ska1 (human) (UniProt Q96BD8); assay: single-molecule TIRF microscopy, intensity distribution and photobleaching steps

Chain of human Ska1 complex (Q96BD8 whole entry): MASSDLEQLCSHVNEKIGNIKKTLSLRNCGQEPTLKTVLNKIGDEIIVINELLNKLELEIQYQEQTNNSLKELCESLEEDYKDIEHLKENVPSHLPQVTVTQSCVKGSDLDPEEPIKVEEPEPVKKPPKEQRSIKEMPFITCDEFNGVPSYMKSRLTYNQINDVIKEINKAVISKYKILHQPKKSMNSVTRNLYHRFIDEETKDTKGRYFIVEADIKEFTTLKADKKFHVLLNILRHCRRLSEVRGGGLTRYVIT
Chain of human Ska1 complex (Q8WVK7 whole entry): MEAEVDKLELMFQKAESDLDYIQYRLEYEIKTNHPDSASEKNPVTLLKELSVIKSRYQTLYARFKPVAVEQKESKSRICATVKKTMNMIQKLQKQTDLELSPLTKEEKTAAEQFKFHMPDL
Chain of human Ska1 complex (Q8IX90 whole entry): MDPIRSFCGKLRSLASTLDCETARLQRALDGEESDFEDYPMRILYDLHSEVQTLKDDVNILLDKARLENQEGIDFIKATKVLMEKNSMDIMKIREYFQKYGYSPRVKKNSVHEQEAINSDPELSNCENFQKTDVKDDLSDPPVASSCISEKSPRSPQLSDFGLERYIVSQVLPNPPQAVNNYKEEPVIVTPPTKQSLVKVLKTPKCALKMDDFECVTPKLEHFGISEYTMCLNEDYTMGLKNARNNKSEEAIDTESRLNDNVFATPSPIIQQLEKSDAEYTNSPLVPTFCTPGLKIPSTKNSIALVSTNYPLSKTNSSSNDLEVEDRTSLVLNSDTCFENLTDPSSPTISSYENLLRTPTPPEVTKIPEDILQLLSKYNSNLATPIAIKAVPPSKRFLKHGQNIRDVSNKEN
Chain of human Ska1 complex containing GFP-Ska1 (Q96BD8 whole entry): as the sequence (Q96BD8 whole entry) above
Chain of human Ska1 complex containing GFP-Ska1 (Q8WVK7 whole entry): as the sequence (Q8WVK7 whole entry) above
Chain of human Ska1 complex containing GFP-Ska1 (Q8IX90 whole entry): as the sequence (Q8IX90 whole entry) above

Substance: C. elegans Ska1 complex (from UniProt Q9XWS0 1-243)
- Kd [1]: 11.3 µM

Substance: human Ska1 complex (from UniProt Q96BD8 1-255; Q8WVK7 1-121; Q8IX90 1-412)
- Kd [1]: 2.4 µM

Substance: human Ska1 complex containing GFP-Ska1 (from UniProt Q96BD8 1-255; Q8WVK7 1-121; Q8IX90 1-412)
- stoichiometry N [2]: 2
